# Experimental data taken from patent publication US20140357845A1.
# B1: CR6261 (antibody, V domains shown)
# VH: EVQLVESGAEVKKPGSSVKVSCKASGGPFRSYAISWVRQAPGQGPEWMGGIIPIFGTTKYAPKFQGRVTITADDFAGTVYMELSSLRSEDTAMYYCAKHMGYQVRETMDVWGKGTTVTVSS
# VL: QSVLTQPPSVSAAPGQKVTISCSGSSSNIGNDYVSWYQQLPGTAPKLLIYDNNKRPSGIPDRFSGSKSGTSATLGITGLQTGDEANYYCATWDRRPTAYVVFGGGTKLTVLG
# Molecular target: miniHA (A/Brisbane/59/2007) (influenza A virus H1N1), A8C8J4
# Test: FACS
# Conditions: remark: other sources report otherwise
binder,measurement,value
B1,% positive cells,1 to 3%
